# US20230406951A1 (Pfizer, published 2023)
# T1: human TNFR2 (human, UniProt P20333 23-461)
# T1 construct: expressed on the surface of CHO cells; also called HuTNFR2; TNFRSF1B
# T1 sequence: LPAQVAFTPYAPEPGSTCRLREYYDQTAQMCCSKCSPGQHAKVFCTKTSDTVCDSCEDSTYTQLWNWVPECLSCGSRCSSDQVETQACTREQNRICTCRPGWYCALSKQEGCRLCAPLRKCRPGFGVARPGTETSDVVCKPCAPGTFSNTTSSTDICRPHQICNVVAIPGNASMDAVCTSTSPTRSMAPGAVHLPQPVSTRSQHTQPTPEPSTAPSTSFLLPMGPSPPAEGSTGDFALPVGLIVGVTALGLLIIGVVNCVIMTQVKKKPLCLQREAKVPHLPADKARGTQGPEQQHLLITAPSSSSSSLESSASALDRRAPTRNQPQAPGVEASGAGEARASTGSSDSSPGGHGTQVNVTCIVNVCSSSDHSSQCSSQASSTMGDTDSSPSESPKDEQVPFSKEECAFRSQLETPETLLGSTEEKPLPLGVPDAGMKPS
# Molecular target: T1, human TNFR2
# Assay: binding to human TNFR2 CHO cells
row,binding result,Binder
1,no binding,"TetraFab 2096 (antibody, TetraFab) heavy: QVQLVQSGAEVKKPGASVKVSCKVSGFSFPSSGVDWVRQAPGQGLEWLGVTRGEGSTHYNQKFQGRVTITKDTSKSTVYMELSSLRSEDTAVYYCASGESTEGFVYWGQGTLVTVSSASTKGPSVFPLAPSSKSTSGGTAALGCLVKDYFPEPVTVSWNSGALTSGVHTFPAVLQSSGLYSLSSVVTVPSSSLGTQTYICNVNHKPSNTKVDKKVEPKSCGGGGSQVQLVQSGAEVKKPGASVKVSCKVSGFSFPSSGVDWVRQAPGQGLEWLGVTRGEGSTHYNQKFQGRVTITKDTSKSTVYMELSSLRSEDTAVYYCASGESTEGFVYWGQGTLVTVSSASTKGPSVFPLAPSSKSTSGGTAALGCLVKDYFPEPVTVSWNSGALTSGVHTFPAVLQSSGLYSLSSVVTVPSSSLGTQTYICNVNHKPSNTKVDKKVEPKSCDKTHTCPPCPAPEAAGAPSVFLFPPKPKDTLMISRTPEVTCVVVDVSHEDPEVKFNWYVDGVEVHNAKTKPREEQYNSTYRVVSVLTVLHQDWLNGKEYKCKVSNKALPAPIEKTISKAKGQPREPQVYTLPPSREEMTKNQVSLTCLVKGFYPSDIAVEWESNGQPENNYKTTPPVLDSDGSFFLYSKLTVDKSRWQQGNVFSCSVMHEALHNHYTQKSLSLSPGK light: DIQLTQSPSFLSASVGDRVTITCKASQNVGTAVAWYQQKPGKAPKLLIYAASTLQSGVPSRFSGSGSGTEFTLTISSLQPEDFATYYCQQYNSYPFGGGTKVEIKRTVAAPSVFIFPPSDEQLKSGTASVVCLLNNFYPREAKVQWKVDNALQSGNSQESVTEQDSKDSTYSLSSTLTLSKADYEKHKVYACEVTHQGLSSPVTKSFNRGEC"
2,no binding,"TetraFab 2099 (antibody, TetraFab) heavy: QVQLVQSGAEVKKPGASVKVSCKVSGFSFPSSGVDWVRQAPGQGLEWLGVTRGEGSTHYNQKFQGRVTITKDTSKSTVYMELSSLRSEDTAVYYCASGEQDEGFVYWGQGTLVTVSSASTKGPSVFPLAPSSKSTSGGTAALGCLVKDYFPEPVTVSWNSGALTSGVHTFPAVLQSSGLYSLSSVVTVPSSSLGTQTYICNVNHKPSNTKVDKKVEPKSCGGGGSQVQLVQSGAEVKKPGASVKVSCKVSGFSFPSSGVDWVRQAPGQGLEWLGVTRGEGSTHYNQKFQGRVTITKDTSKSTVYMELSSLRSEDTAVYYCASGEQDEGFVYWGQGTLVTVSSASTKGPSVFPLAPSSKSTSGGTAALGCLVKDYFPEPVTVSWNSGALTSGVHTFPAVLQSSGLYSLSSVVTVPSSSLGTQTYICNVNHKPSNTKVDKKVEPKSCDKTHTCPPCPAPEAAGAPSVFLFPPKPKDTLMISRTPEVTCVVVDVSHEDPEVKFNWYVDGVEVHNAKTKPREEQYNSTYRVVSVLTVLHQDWLNGKEYKCKVSNKALPAPIEKTISKAKGQPREPQVYTLPPSREEMTKNQVSLTCLVKGFYPSDIAVEWESNGQPENNYKTTPPVLDSDGSFFLYSKLTVDKSRWQQGNVFSCSVMHEALHNHYTQKSLSLSPGK light: DIQLTQSPSFLSASVGDRVTITCKASQNVGTAVAWYQQKPGKAPKLLIYAASTLQSGVPSRFSGSGSGTEFTLTISSLQPEDFATYYCQQYNSYPFGGGTKVEIKRTVAAPSVFIFPPSDEQLKSGTASVVCLLNNFYPREAKVQWKVDNALQSGNSQESVTEQDSKDSTYSLSSTLTLSKADYEKHKVYACEVTHQGLSSPVTKSFNRGEC"
3,no binding,"TetraFab 2106 (antibody, TetraFab) heavy: QVQLVQSGAEVKKPGASVKVSCKVSGFSFPSSGVDWVRQAPGQGLEWLGVTLGHGSTHYNQKFQGRVTITKDTSKSTVYMELSSLRSEDTAVYYCASGERDEGFVYWGQGTLVTVSSASTKGPSVFPLAPSSKSTSGGTAALGCLVKDYFPEPVTVSWNSGALTSGVHTFPAVLQSSGLYSLSSVVTVPSSSLGTQTYICNVNHKPSNTKVDKKVEPKSCGGGGSQVQLVQSGAEVKKPGASVKVSCKVSGFSFPSSGVDWVRQAPGQGLEWLGVTLGHGSTHYNQKFQGRVTITKDTSKSTVYMELSSLRSEDTAVYYCASGERDEGFVYWGQGTLVTVSSASTKGPSVFPLAPSSKSTSGGTAALGCLVKDYFPEPVTVSWNSGALTSGVHTFPAVLQSSGLYSLSSVVTVPSSSLGTQTYICNVNHKPSNTKVDKKVEPKSCDKTHTCPPCPAPEAAGAPSVFLFPPKPKDTLMISRTPEVTCVVVDVSHEDPEVKFNWYVDGVEVHNAKTKPREEQYNSTYRVVSVLTVLHQDWLNGKEYKCKVSNKALPAPIEKTISKAKGQPREPQVYTLPPSREEMTKNQVSLTCLVKGFYPSDIAVEWESNGQPENNYKTTPPVLDSDGSFFLYSKLTVDKSRWQQGNVFSCSVMHEALHNHYTQKSLSLSPGK light: DIQLTQSPSFLSASVGDRVTITCKASQNVGTAVAWYQQKPGKAPKLLIYAASTLQSGVPSRFSGSGSGTEFTLTISSLQPEDFATYYCQQYNSYPFGGGTKVEIKRTVAAPSVFIFPPSDEQLKSGTASVVCLLNNFYPREAKVQWKVDNALQSGNSQESVTEQDSKDSTYSLSSTLTLSKADYEKHKVYACEVTHQGLSSPVTKSFNRGEC"
4,no binding,"TetraFab 2109 (antibody, TetraFab) heavy: QVQLVQSGAEVKKPGASVKVSCKVSGFSFPSSGVDWVRQAPGQGLEWLGVTHGSGSTHYNQKFQGRVTITKDTSKSTVYMELSSLRSEDTAVYYCASGEHDEGFVYWGQGTLVTVSSASTKGPSVFPLAPSSKSTSGGTAALGCLVKDYFPEPVTVSWNSGALTSGVHTFPAVLQSSGLYSLSSVVTVPSSSLGTQTYICNVNHKPSNTKVDKKVEPKSCGGGGSQVQLVQSGAEVKKPGASVKVSCKVSGFSFPSSGVDWVRQAPGQGLEWLGVTHGSGSTHYNQKFQGRVTITKDTSKSTVYMELSSLRSEDTAVYYCASGEHDEGFVYWGQGTLVTVSSASTKGPSVFPLAPSSKSTSGGTAALGCLVKDYFPEPVTVSWNSGALTSGVHTFPAVLQSSGLYSLSSVVTVPSSSLGTQTYICNVNHKPSNTKVDKKVEPKSCDKTHTCPPCPAPEAAGAPSVFLFPPKPKDTLMISRTPEVTCVVVDVSHEDPEVKFNWYVDGVEVHNAKTKPREEQYNSTYRVVSVLTVLHQDWLNGKEYKCKVSNKALPAPIEKTISKAKGQPREPQVYTLPPSREEMTKNQVSLTCLVKGFYPSDIAVEWESNGQPENNYKTTPPVLDSDGSFFLYSKLTVDKSRWQQGNVFSCSVMHEALHNHYTQKSLSLSPGK light: DIQLTQSPSFLSASVGDRVTITCKASQNVGTAVAWYQQKPGKAPKLLIYAASTLQSGVPSRFSGSGSGTEFTLTISSLQPEDFATYYCQQYNSYPFGGGTKVEIKRTVAAPSVFIFPPSDEQLKSGTASVVCLLNNFYPREAKVQWKVDNALQSGNSQESVTEQDSKDSTYSLSSTLTLSKADYEKHKVYACEVTHQGLSSPVTKSFNRGEC"
5,no binding,"TetraFab 2108 (antibody, TetraFab) heavy: QVQLVQSGAEVKKPGASVKVSCKVSGFSFPSSGVDWVRQAPGQGLEWLGVTHGSGSTHYNQKFQGRVTITKDTSKSTVYMELSSLRSEDTAVYYCASGESTEGFVYWGQGTLVTVSSASTKGPSVFPLAPSSKSTSGGTAALGCLVKDYFPEPVTVSWNSGALTSGVHTFPAVLQSSGLYSLSSVVTVPSSSLGTQTYICNVNHKPSNTKVDKKVEPKSCGGGGSQVQLVQSGAEVKKPGASVKVSCKVSGFSFPSSGVDWVRQAPGQGLEWLGVTHGSGSTHYNQKFQGRVTITKDTSKSTVYMELSSLRSEDTAVYYCASGESTEGFVYWGQGTLVTVSSASTKGPSVFPLAPSSKSTSGGTAALGCLVKDYFPEPVTVSWNSGALTSGVHTFPAVLQSSGLYSLSSVVTVPSSSLGTQTYICNVNHKPSNTKVDKKVEPKSCDKTHTCPPCPAPEAAGAPSVFLFPPKPKDTLMISRTPEVTCVVVDVSHEDPEVKFNWYVDGVEVHNAKTKPREEQYNSTYRVVSVLTVLHQDWLNGKEYKCKVSNKALPAPIEKTISKAKGQPREPQVYTLPPSREEMTKNQVSLTCLVKGFYPSDIAVEWESNGQPENNYKTTPPVLDSDGSFFLYSKLTVDKSRWQQGNVFSCSVMHEALHNHYTQKSLSLSPGK light: DIQLTQSPSFLSASVGDRVTITCKASQNVGTAVAWYQQKPGKAPKLLIYAASTLQSGVPSRFSGSGSGTEFTLTISSLQPEDFATYYCQQYNSYPFGGGTKVEIKRTVAAPSVFIFPPSDEQLKSGTASVVCLLNNFYPREAKVQWKVDNALQSGNSQESVTEQDSKDSTYSLSSTLTLSKADYEKHKVYACEVTHQGLSSPVTKSFNRGEC"
6,no binding,"TetraFab 2098 (antibody, TetraFab) heavy: QVQLVQSGAEVKKPGASVKVSCKVSGFSFPSSGVDWVRQAPGQGLEWLGVTRGEGSTHYNQKFQGRVTITKDTSKSTVYMELSSLRSEDTAVYYCASGERDEGFVYWGQGTLVTVSSASTKGPSVFPLAPSSKSTSGGTAALGCLVKDYFPEPVTVSWNSGALTSGVHTFPAVLQSSGLYSLSSVVTVPSSSLGTQTYICNVNHKPSNTKVDKKVEPKSCGGGGSQVQLVQSGAEVKKPGASVKVSCKVSGFSFPSSGVDWVRQAPGQGLEWLGVTRGEGSTHYNQKFQGRVTITKDTSKSTVYMELSSLRSEDTAVYYCASGERDEGFVYWGQGTLVTVSSASTKGPSVFPLAPSSKSTSGGTAALGCLVKDYFPEPVTVSWNSGALTSGVHTFPAVLQSSGLYSLSSVVTVPSSSLGTQTYICNVNHKPSNTKVDKKVEPKSCDKTHTCPPCPAPEAAGAPSVFLFPPKPKDTLMISRTPEVTCVVVDVSHEDPEVKFNWYVDGVEVHNAKTKPREEQYNSTYRVVSVLTVLHQDWLNGKEYKCKVSNKALPAPIEKTISKAKGQPREPQVYTLPPSREEMTKNQVSLTCLVKGFYPSDIAVEWESNGQPENNYKTTPPVLDSDGSFFLYSKLTVDKSRWQQGNVFSCSVMHEALHNHYTQKSLSLSPGK light: DIQLTQSPSFLSASVGDRVTITCKASQNVGTAVAWYQQKPGKAPKLLIYAASTLQSGVPSRFSGSGSGTEFTLTISSLQPEDFATYYCQQYNSYPFGGGTKVEIKRTVAAPSVFIFPPSDEQLKSGTASVVCLLNNFYPREAKVQWKVDNALQSGNSQESVTEQDSKDSTYSLSSTLTLSKADYEKHKVYACEVTHQGLSSPVTKSFNRGEC"
